Source: article PMC3682496

Molecular target: maltose-binding protein (MBP-DHhN) modified with 6-azicholestanol (not stated | Drosophila)
Experiment: cross-linking

Scube2, HA-tagged (from UniProt Q9JJS0 29-997) (natural protein)
stoichiometry N: 1
